Publication PMC10311653

Target: wildtype (WT) human interleukin-1β (human) (UniProt P01584)
Test: ELISA; antigen (100 ng) coated on the plate; scFv-mFc added in 3% skim milk in DPBST, 2 h at 37 °C; EC50

- EC50: 17.4 nM
B1: E64Kcr-H11-mFc (Fc fusion)
VH: EVQLQQSGAELVKPGASVRLSCTASGFNIKDYYMHWVKQRPEQGLEWIGWIDPENGDTEYAPKFQGKATMTADTSSNTAYLQLSSLTSEDTAVYYCNGYDDYWGQGTTLTVSS
VL: DIVMTQSQKFMSTSVGDRVSVTCKASQNVGTDVAWYQQKPGQSPKALIYSASYHYSGVPDRFTGTGSGTDFTLTISNVRSEDLAEYFCQQYNSYPYTFGGGTKLEIK
